Measurements reported in patent publication US20140120095A1 (Boehringer Ingelheim, published 2014).
One block for each binder: values may come before it.

Legend:
PIGF = biological target: T1, PIGF (UniProt P49763-2 21-149, limits assumed); assay: solid phase binding ELISA on coated PIGF (Example 12.8)
T1 construct: also called placenta growth factor
T1 sequence (looked up): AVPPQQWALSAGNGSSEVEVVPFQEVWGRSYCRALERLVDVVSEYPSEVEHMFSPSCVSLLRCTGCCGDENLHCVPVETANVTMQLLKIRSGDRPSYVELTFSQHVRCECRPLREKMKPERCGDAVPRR
Description: (§1) Binding to VEGFB, VEGFC, VEGFD and PIGF is assessed via a solid phase binding ELISA. […] Wells are blocked with a casein solution (1% in PBS). […] As positive controls serial dilutions of the appropriate receptors are taken along and detected with horseradish peroxidase (HRP)-conjugated goat anti-human IgG, Fc specific antibody (Jackson Immuno Research Laboratories Inc., West Grove, Pa., USA) and a subsequent enzymatic reaction in the presence of the substrate TMB (3,3′,5,5′-tetramentylbenzidine) (Pierce, Rockford, Ill., USA).

VEGFB = biological target: T2, VEGFB (UniProt P49765-2 22-188, limits assumed); assay: binding ELISA on coated VEGFB (Example 12.8), OD 450 nm
T2 sequence (looked up): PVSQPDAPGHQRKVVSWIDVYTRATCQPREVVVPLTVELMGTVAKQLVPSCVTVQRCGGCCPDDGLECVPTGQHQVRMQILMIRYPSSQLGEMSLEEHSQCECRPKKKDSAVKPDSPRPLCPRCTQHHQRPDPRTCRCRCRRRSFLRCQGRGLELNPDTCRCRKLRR
Description: as §1

VEGFC = biological target: T3, VEGFC (UniProt P49767 103-227, limits assumed); assay: binding ELISA on coated VEGFC (Example 12.8), OD 450 nm
T3 sequence (looked up): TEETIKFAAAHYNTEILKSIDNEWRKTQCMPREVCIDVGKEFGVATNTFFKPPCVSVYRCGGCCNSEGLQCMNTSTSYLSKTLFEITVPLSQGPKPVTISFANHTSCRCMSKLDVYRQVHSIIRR
Description: as §1

VEGFD = biological target: T4, VEGFD (UniProt O43915 93-201, limits assumed); assay: binding ELISA on coated VEGFD (Example 12.8), OD 450 nm
T4 sequence (looked up): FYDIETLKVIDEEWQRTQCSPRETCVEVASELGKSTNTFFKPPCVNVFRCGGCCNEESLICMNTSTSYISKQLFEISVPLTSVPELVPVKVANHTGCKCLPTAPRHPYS
Description: as §1

[1] = biological target: T5, human DLL4 overexpressed on cells (human, UniProt Q9NR61 27-685); assay: FMAT, labelled hNotch1-Fc on CHO-hDLL4, periplasmic extract
T5 construct: full length human DLL4 on CHO or HEK293 cells; also called CHO-hDLL4; CHO-hDII4
Text: (§2) All calculations are based on the FL1_total signal which comprises the average of the fluorescence per well times the number of counts per well.

[2] = biological target: T6, mouse DLL4 overexpressed on cells (mouse, UniProt Q9JI71 27-686); assay: FMAT, labelled hNotch1-Fc on CHO-mDLL4, periplasmic extract
T6 construct: whole, on cells; also called CHO-mDLL4; CHO-mDII4
Text: as §2

recombinant human DLL4 = biological target: T7, recombinant human DLL4 (human, UniProt Q9NR61 25-522); assay: Biacore off-rate, periplasmic extract; single VHH, not bracketed
T7 construct: also called rhDLL4; hDLL4

[3] = biological target: T8, human DLL4, full length, overexpressed on cells (human, UniProt Q9NR61 27-685); assay: FMAT, hNotch1-Fc on CHO-hDLL4, -HSA
T8 construct: CHO cells in FMAT, HEK293 cells in the reporter assay; also called hDLL4; CHO-hDLL4

[4] = biological target: T9, mouse DLL4, full length, overexpressed on CHO cells (mouse, UniProt Q9JI71 27-686); assay: FMAT, hNotch1-Fc on CHO-mDLL4, -HSA
T9 construct: whole, on cells; also called mDLL4; CHO-mDLL4

[5] = biological target: T8, human DLL4, full length, overexpressed …; assay: FMAT, hNotch1-Fc on CHO-hDLL4, +25 uM HSA
[6] = biological target: T9, mouse DLL4, full length, overexpressed …; assay: FMAT, hNotch1-Fc on CHO-mDLL4, +25 uM HSA
human VEGFR2-Fc chimera = biological target: T10, human VEGFR2-Fc chimera (human, UniProt P35968 20-764); assay: ELISA, coated VEGF109
T10 construct: also called hVEGFR2-Fc; VEGFR2-huFc; not shown: human Fc part of the bought chimera; not described
Description: Cells are harvested by centrifugation and lysed by sonication of the cell pellet. Inclusion bodies are isolated by centrifugation. […] The refolded protein is purified by ion exchange chromatography using a MonoQ5/50GL (Amersham BioSciences) column followed by gel filtration with a Superdex75 10/300 GL column (Amersheim BioSciences). […] To this end, 1 μg/mL of recombinant human VEGF109 is immobilized overnight at 4° C. in a 96-well MaxiSorp plate (Nunc, Wiesbaden, Germany). Wells are blocked with a casein solution (1%).

[7] = biological target: T11, VEGF (used to stimulate HUVEC cells) (UniProt P15692-4 27-191, limits assumed); assay: cell-based or functional assay
[8] = biological target: T11, VEGF (used to stimulate HUVEC cells); assay: cell-based or functional assay; remark: listed apart in the source
[9] = biological target: T12, recombinant human VEGF165 (human, UniProt P15692-4 27-191, biotinylated in the competition assays); assay: binding ELISA, coated rhVEGF165
T12 construct: Bought protein; also called hVEGF165; rhVEGF165
Target sequence in this assay (P15692 other isoform, or with tags, fused parts or gaps): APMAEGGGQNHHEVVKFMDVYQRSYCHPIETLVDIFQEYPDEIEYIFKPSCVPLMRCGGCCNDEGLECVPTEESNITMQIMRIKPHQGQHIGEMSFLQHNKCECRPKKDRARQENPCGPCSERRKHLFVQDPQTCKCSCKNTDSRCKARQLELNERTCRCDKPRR

[10] = biological target: T13, recombinant mouse VEGF164 (mouse, UniProt Q00731-2 27-190, biotinylated as the labelled ligand of the mVEGF164/mVEGFR2 AlphaScreen); assay: binding ELISA, coated rmVEGF164
T13 construct: also called mVEGF164; rmVEGF164
T13 sequence (looked up): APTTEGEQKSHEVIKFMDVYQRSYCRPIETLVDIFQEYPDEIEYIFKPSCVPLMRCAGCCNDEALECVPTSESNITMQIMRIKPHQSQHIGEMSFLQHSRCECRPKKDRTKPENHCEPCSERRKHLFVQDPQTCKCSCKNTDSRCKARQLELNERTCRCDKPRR
Description: Cross-reactivity to mouse VEGF164 is determined using a binding ELISA. […] Wells are blocked with a casein solution (1% in PBS). […] A mouse VEGF164 reactive mAb is included as positive control.

[11] = biological target: T14, recombinant human VEGF121 (human, UniProt P15692-9 27-147); assay: binding ELISA, coated rhVEGF121
T14 construct: also called rhVEGF121
T14 sequence (looked up): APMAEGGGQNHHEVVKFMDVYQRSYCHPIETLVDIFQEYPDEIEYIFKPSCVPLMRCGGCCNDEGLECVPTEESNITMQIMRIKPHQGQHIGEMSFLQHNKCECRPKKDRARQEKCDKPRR
Description: Binding to recombinant human VEGF121 is assessed via a solid phase binding ELISA. […] Wells are blocked with a casein solution (1% in PBS).

[12] = biological target: T12, recombinant human VEGF165; assay: ELISA, hVEGF165/hVEGFR2-Fc competition; parameters: % inhibition: concentration or dose not given beside the values
[13] = biological target: T12, recombinant human VEGF165; assay: ELISA, hVEGF165/hVEGFR1-Fc competition; parameters: % inhibition: concentration or dose not given beside the values
Target sequence in this assay (P15692 other isoform, or with tags, fused parts or gaps): as the sequence (P15692 other isoform, or with tags, fused parts or gaps) above

[14] = biological target: T12, recombinant human VEGF165; assay: AlphaScreen, hVEGF165/hVEGFR1-Fc competition
Description: (§3) Finally, streptavidin donor beads (20 μg/ml) are added and after 1 hour of incubation in the dark, fluorescence is measured on the Envision microplate reader.
Target sequence in this assay (P15692 other isoform, or with tags, fused parts or gaps): as the sequence (P15692 other isoform, or with tags, fused parts or gaps) above

[15] = biological target: T12, recombinant human VEGF165; assay: AlphaScreen, hVEGF165/hVEGFR2-Fc competition
Description: as §3
Target sequence in this assay (P15692 other isoform, or with tags, fused parts or gaps): as the sequence (P15692 other isoform, or with tags, fused parts or gaps) above

[16] = biological target: T12, recombinant human VEGF165; assay: AlphaScreen, hVEGF165/hVEGFR2-Fc competition; parameters: % inhibition: concentration or dose not given beside the values
Description: as §3

[17] = biological target: T12, recombinant human VEGF165; assay: AlphaScreen, hVEGF165/hVEGFR1-Fc competition; parameters: % inhibition: concentration or dose not given beside the values
Description: as §3
Target sequence in this assay (P15692 other isoform, or with tags, fused parts or gaps): as the sequence (P15692 other isoform, or with tags, fused parts or gaps) above

[18] = biological target: T13, recombinant mouse VEGF164; assay: AlphaScreen, mVEGF164/mVEGFR2-hFc competition
Description: Finally, streptavidin donor beads (20 μg/ml) are added and after 1 hour of incubation fluorescence is measured on the Envision microplate reader.

[19] = biological target: T12, recombinant human VEGF165; assay: AlphaScreen, hVEGF165/hVEGFR2-Fc competition, -HSA
[20] = biological target: T12, recombinant human VEGF165; assay: AlphaScreen, hVEGF165/hVEGFR1-Fc competition, -HSA
[21] = biological target: T12, recombinant human VEGF165; assay: AlphaScreen, hVEGF165/hVEGFR2-Fc competition, -HSA; remark: listed apart in the source
[22] = biological target: T12, recombinant human VEGF165; assay: AlphaScreen, hVEGF165/hVEGFR2-Fc competition, +5 uM HSA
[23] = biological target: T12, recombinant human VEGF165; assay: SPR Biacore, immobilised hVEGF165, two state reaction model
Target sequence in this assay (P15692 other isoform, or with tags, fused parts or gaps): as the sequence (P15692 other isoform, or with tags, fused parts or gaps) above

T11 sequence (P15692 other isoform, or with tags, fused parts or gaps limits assumed): as the sequence (P15692 other isoform, or with tags, fused parts or gaps) above
T9 sequence (Q9JI71 27-686): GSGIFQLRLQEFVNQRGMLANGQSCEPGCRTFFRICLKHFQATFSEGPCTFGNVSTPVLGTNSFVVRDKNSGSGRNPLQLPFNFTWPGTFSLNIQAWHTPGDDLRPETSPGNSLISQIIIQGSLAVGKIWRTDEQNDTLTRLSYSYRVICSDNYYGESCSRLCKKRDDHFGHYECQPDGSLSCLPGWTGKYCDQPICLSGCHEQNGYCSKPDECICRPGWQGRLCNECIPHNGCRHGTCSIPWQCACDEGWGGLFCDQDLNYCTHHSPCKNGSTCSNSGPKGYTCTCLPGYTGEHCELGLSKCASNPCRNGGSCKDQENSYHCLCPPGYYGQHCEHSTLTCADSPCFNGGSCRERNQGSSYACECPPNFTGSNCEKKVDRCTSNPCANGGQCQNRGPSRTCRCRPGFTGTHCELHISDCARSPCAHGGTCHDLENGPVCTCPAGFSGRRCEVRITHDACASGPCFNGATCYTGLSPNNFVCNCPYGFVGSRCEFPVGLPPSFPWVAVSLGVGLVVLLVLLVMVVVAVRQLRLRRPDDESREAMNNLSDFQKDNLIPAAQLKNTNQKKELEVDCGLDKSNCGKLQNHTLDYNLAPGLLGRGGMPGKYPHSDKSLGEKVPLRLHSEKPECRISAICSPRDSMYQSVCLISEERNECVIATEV
T10 sequence (P35968 20-764, change not shown): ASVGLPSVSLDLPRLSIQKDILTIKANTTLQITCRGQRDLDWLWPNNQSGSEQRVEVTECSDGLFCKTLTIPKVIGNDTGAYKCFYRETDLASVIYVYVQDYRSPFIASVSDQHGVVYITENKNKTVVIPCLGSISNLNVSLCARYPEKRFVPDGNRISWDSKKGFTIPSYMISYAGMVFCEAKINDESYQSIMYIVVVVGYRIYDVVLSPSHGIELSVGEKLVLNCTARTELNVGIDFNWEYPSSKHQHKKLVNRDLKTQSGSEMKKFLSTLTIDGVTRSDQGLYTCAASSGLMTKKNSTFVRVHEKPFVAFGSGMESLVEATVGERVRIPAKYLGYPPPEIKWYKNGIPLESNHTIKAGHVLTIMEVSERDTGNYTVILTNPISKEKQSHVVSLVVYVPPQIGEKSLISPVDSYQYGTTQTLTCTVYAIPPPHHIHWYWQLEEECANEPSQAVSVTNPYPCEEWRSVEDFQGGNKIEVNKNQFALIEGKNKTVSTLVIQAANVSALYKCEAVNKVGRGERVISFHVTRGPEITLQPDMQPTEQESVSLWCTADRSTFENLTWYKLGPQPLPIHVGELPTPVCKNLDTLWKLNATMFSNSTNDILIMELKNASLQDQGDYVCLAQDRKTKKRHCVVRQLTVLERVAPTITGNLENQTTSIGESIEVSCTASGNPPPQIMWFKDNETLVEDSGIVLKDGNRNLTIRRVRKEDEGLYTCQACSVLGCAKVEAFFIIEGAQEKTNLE
T6 sequence (Q9JI71 27-686): as the sequence (Q9JI71 27-686) above

binding result (PIGF): no binding (tested: about 5e-7 M) | binding result (VEGFB): no binding (tested: 5e-7 M) | binding result (VEGFC): no binding (tested: 5e-7 M) | binding result (VEGFD): no binding (tested: 5e-7 M)
B1: VEGFBII010 (VHH)
chain: EVQLVESGGGLVQTGDSLRLSCEVSGRTFSSYSMGWFRQAQGKEREFVVAISKGGYKYDSVSLEGRFTISKDNAKNTVYLQINSLKPEDTAVYYCASSRAYGSSRLRLADTYEYWGQGTQVTVSSGGGGSGGGGSGGGGSGGGGSGGGGSGGGGSGGGGSEVQLVESGGGLVQTGDSLRLSCEVSGRTFSSYSMGWFRQAQGKEREFVVAISKGGYKYDSVSLEGRFTISKDNAKNTVYLQINSLKPEDTAVYYCASSRAYGSSRLRLADTYEYWGQGTQVTVSS
notes: homodimeric bivalent VHH; also called VEGFBII23B04-35GS-23B04

% inh [1]: 85% | % inh [2]: 78% | koff (recombinant human DLL4): 0.02 s⁻¹
B2: DLLBII101F01 (VHH)
VHH: EVQLVESGGGLVQAGGSLRLSCAASGRTFSNYAMGWFRQAPGKEREFVAAISWSGGDTYYADSVKGRFTISRDNAKNTVCLQMNSLKPEDTAVYYCAASFQSGAAPGANFYDYWGQGTQVTVSS

% inh [3]: 87% | IC50 [3]: 5.5 nM | % inh [4]: 99% | IC50 [4]: 2.4 nM | IC50 [5]: 7.1 nM | IC50 [6]: 2.8 nM
B3: DLLBII018 (VHH)
VHH: EVQLVESGGGLVQPGGSLRLSCAASGRTFSSYAMAWYRQAPGKEREYVAAIRWSGGTAYYADSVKGRFTISRDNAKNTVYLQMNSLRPEDTAVYYCANRAPDTRLAPYEYDHWGQGTLVTVSS

binding result (human VEGFR2-Fc chimera): binds
B4: recombinant human VEGF109 (ligand, UniProt P15692 207-315, looked up)
chain: APMAEGGGQNHHEVVKFMDVYQRSYCHPIETLVDIFQEYPDEIEYIFKPSCVPLMRCGGCCNDEGLECVPTEESNITMQIMRIKPHQGQHIGEMSFLQHNKCECRPKKD
notes: residue numbers count on GenBank AAM03108.1; also called rhVEGF109

% inhibition, VEGF HUVEC proliferation assay [7]: 100% | IC50, VEGF HUVEC proliferation assay [7]: 0.34 nM | % inhibition, VEGF HUVEC Erk phosphorylation assay [8]: 94% | IC50, VEGF HUVEC Erk phosphorylation assay [8]: 0.18 nM | EC50 [9]: 0.224 nM | EC50 [10]: 0.464 nM | EC50 [11]: 0.54 nM | % inhibition [12]: 100% | IC50 [12]: 0.164 nM | % inhibition [13]: 89% | IC50 [13]: 0.225 nM | % inhibition [14]: 100% | IC50 [14]: 0.008 nM | IC50 [15]: 0.007 nM | % inhibition [16]: 100% | IC50 [16]: 0.007 nM | % inhibition [17]: 98% | IC50 [17]: 0.009 nM | IC50 [18]: 108 nM | % inh [19]: 100% | IC50 [19]: 0.017 nM | % inh [20]: 87% | IC50 [20]: 0.07 nM | % inh [21]: 100% | IC50 [21]: 0.05 nM | IC50 [22]: 0.03 nM | Kd [23]: 0.14 nM | ka1 [23]: 1.2e+06 M⁻¹ s⁻¹ | ka2 [23]: 0.014 s⁻¹ | kd1 [23]: 0.0091 s⁻¹ | kd2 [23]: 0.00026 s⁻¹
B5: VEGFBII022 (VHH, not shown: small tags and cut ends)
chain: EVQLVESGGGLVQTGDSLRLSCEVSGRTFSSYSMGWFRQAQGKEREFVVAISKGGYKYDSVSLEGRFTISKDNAKNTVYLQINSLKPEDTAVYYCASSRAYGSSRLRLADTYEYWGQGTQVTVSSGGGGSGGGSEVQLVESGGGLVQPGGSLRLSCVASGIRFMSMAWYRQAPGKHRELVARISSGGTTAYVDSVKGRFTISRDNSKNTVYLQMNSLKAEDTAVYYCNTFSSRPNPWGAGTQVTVSS
notes: Bivalent (heterodimeric) anti-VEGF VHH; also called VEGFBII23B04-9GS-5B05
